Test results from publication doi:10.1101/2024.09.23.614597.

Biological target: PelC lipoprotein (P. aeruginosa)
Test: cryo-EM structure

## PelC lipoprotein (natural protein)
  stoichiometry N: 12 subunits
